Data on 1 substance can be found in patent US20190134606A1.

This assay addresses Fab fragment derived from the humanized anti-IgE monoclonal IgG omalizumab ("Xolair", Novartis), made by papain digestion. The assay can be described thus: column breakthrough, 1 mg/mL Fab, HiTrap Protein L column, ligand density 10 mg/mL-gel from the manual.

Take “Protein L ligand of the commercially available Protein L carrier ("HiTrap Protein L" manufactured by GE Healthcare)”: the 55% DBC worked out at 21.7 mg/mL-gel.
